In experiment [1] the target is T1, monkey 4-1BB on CHOK1 cells (monkey).
T1 construct: whole, on cells; also called CHOK1-c4-1BB
Kind of experiment: FACS, CHOK1-c4-1BB cells; Ab 0.016 ug/ml. An excerpt:
(§1) The pIRES plasmid carrying the full-length gene of monkey-derived […] (the preparation method is the same as the preparation method of the pCpC vector carrying the human-derived IgG Fc fragment (hFc) in “Preparation of immunogen A” of the step (1) in Example 1, in which the database accession number of the amino acid sequence of the extracellular region of monkey 4-1BB protein (Phe19-Thr239) is G7PSE7) was transfected into CHOK1 cell line to obtain CHOK1 stable transfected cell line containing monkey 4-1BB (herein referred to as CHOK1-c4-1BB stable cell line). The CHOK1-h4-1BB stable cell line and the CHOK1-c4-1BB stable cell line were expanded and cultivated to 90% confluence in T-75 cell culture flasks. The medium was exhausted, and washed twice with HBSS buffer (Hanks Balanced Salt Solution, purchased from Invitrogen), and then the cells were treated and collected with enzyme-free cell dissociation solution (Versene solution, purchased from Life Technology). The cells were washed twice with HBSS buffer, and after cell counting, the cells were diluted with HBSS buffer to 2×10⁶ cells per ml, and 1% goat serum blocking solution was added, the percentage being the mass percentage. It was incubated on ice for 30 minutes, and then washed twice with HBSS buffer by centrifugation. The collected cells were suspended in FACS buffer (HBSS containing 1% BSA, the percentage was the mass percentage) to 2×10⁶ cells/mL, and 100 μl per well was added to a 96-well FACS reaction plate. The purified 4-1BB antibody test sample obtained in Example 2 was added, 100 microliters per well and incubated on ice for 2 hours. […] It was washed three times with FACS buffer by centrifugation, and 100 μl of fixative [4% (v/v) paraformaldehyde] per well was added to suspend cells, and washed twice with FACS buffer after 10 minutes by centrifugation. The cells were suspended with 100 microliters of FACS buffer, and the results were detected and analyzed with FACS (FACS Calibur, purchased from BD).
In general terms: A flow cytometer gives signals particle by particle.

Experiment [2] concerns the target T2, human 4-1BB, full length, on transfected cells (human, UniProt Q07011 24-255).
T2 construct: whole, on cells; also called CHOK1-h4-1BB
Kind of experiment: FACS, CHOK1-h4-1BB cells; Ab 10 ug/ml.
Description: as §1

Experiment [3] deals with T3, hFc-tagged human 4-1BB extracellular domain protein (4-1BB-hFc) (human, UniProt Q07011 24-186, limits assumed).
T3 construct: also called immunogen A; 4-1BB^ECD-hFc; not shown: human IgG Fc fragment (hFc) of the pCpC vector
Kind of experiment: ELISA: human 4-1BB-hFc coated at 1.0 µg/mL, antibody titrated, HRP secondary antibody, OD450. How it is done:
(§2) The purified immunogen A (4-1BB-hFc), monkey 4-1BB-his, and mouse 4-1BB-his obtained in Example 1 [for the preparation method, see step 1 of Example 1, preparation of immunogen A], of which the extracellular domain of monkey-derived 4-1BB protein (purchased from ACRO biosystems), the extracellular domain of mouse 4-1BB protein (purchased from sino biological) or other immune detection point proteins respectively were diluted with PBS to a final concentration of 1.0 μg/mL, then added with […] per well to 96-well ELISA plate. It was sealed with plastic film and incubated at 4° C. overnight. The next day, the plate was washed twice with the plate-washing solution [PBS containing 0.01% (v/v) Tween20] and blocking solution [PBS containing 0.01% (v/v) Tween 20 and 1% (v/v) BSA] was added and blocked at room temperature for 2 hours. The blocking solution was discarded and 100 μl of the purified 4-1BB antibody obtained in Example 2 was added per well. After incubated at 37° C. for 2 hours, the plate was washed 3 times with a plate-washing solution [PBS containing 0.01% (v/v) Tween20]. A secondary antibody (purchased from Sigma) labeled with HRP (horseradish peroxidase) was added, and after incubated at 37° C. for 2 hours, the plate was washed 3 times with a plate-washing solution [PBS containing 0.01% (v/v) Tween20]. 100 μl of TMB substrate was added per well. After incubated for 30 minutes at room temperature, 100 μl of stop buffer (1.0N HCl) was added per well. The A450 nm values were read using an ELISA plate reader (SpectraMax 384plus, Molecular Device).
(ELISA stands for enzyme-linked immunosorbent assay.)

For experiment [4], the target named is T2, human 4-1BB, full length, on …. Put plainly: FACS, CHOK1-h4-1BB cells; Ab 0.4 ug/ml.
Description: as §1

For experiment [5] the target is unchanged. Kind of experiment: FACS on CHOK1-h4-1BB cells, Alexa 488 secondary antibody, average fluorescence intensity.
Description: as §1

For experiment [6], the target named is T1, monkey 4-1BB on CHOK1 cells. Kind of experiment: FACS, CHOK1-c4-1BB cells; Ab 0.00013 ug/ml.
Description: as §1

Experiment [7] deals with T4, monkey 4-1BB-his protein (monkey).
T4 construct: extracellular domain; Bought protein; also called extracellular domain of monkey-derived 4-1BB protein
Put plainly: ELISA, coated monkey 4-1BB-his; Ab 0.0032 ug/ml. The procedure:
as §2

The target of experiment [8] is T4, monkey 4-1BB-his protein. Kind of experiment: ELISA, coated monkey 4-1BB-his; Ab 0.08 ug/ml. How it is done:
as §2

The target of experiment [9] is T2, human 4-1BB, full length, on …. Kind of experiment: FACS, CHOK1-h4-1BB cells; Ab 0.016 ug/ml.
Description: as §1

The target of experiment [10] is T1, monkey 4-1BB on CHOK1 cells. Kind of experiment: FACS, CHOK1-c4-1BB cells; Ab 2 ug/ml.
Description: as §1

Experiment [11] addresses T3, hFc-tagged human 4-1BB extracellular …. Put plainly: ELISA, coated human 4-1BB-hFc; Ab 0.08 ug/ml. The procedure: as §2
Experiment [12] shares this target. Kind of experiment: ELISA, coated human 4-1BB-hFc; Ab 10 ug/ml. How it is done: as §2
For experiment [13] the target is unchanged. Put plainly: ELISA, coated human 4-1BB-hFc; Ab 0.016 ug/ml. The procedure: as §2
For experiment [14] the target is unchanged. Kind of experiment: ELISA, coated human 4-1BB-hFc; Ab 0.0032 ug/ml. How it is done:
as §2

T2 sequence (Q07011 24-255): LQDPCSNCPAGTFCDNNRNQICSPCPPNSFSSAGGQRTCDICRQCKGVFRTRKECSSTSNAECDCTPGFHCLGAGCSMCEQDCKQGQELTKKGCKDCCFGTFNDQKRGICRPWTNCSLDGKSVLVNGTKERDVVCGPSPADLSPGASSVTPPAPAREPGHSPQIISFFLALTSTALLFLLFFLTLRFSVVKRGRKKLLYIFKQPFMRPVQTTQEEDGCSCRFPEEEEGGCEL

B1: 57B3D10 (antibody, V domains shown)
VH: QVQLQESGPGLVKPSETLSLTCTVSGGSISSYYWSWIRQPPGKGLEWIGYIYYSGSTNYNPSLKSRVTISVDTSKSQFSLKLTSVTAADTAVYYCAKDSDYYGSGSYSYWYFDLWGRGTLVTVSS
VL: EIVMTQSPATLSVSPGERATLSCRASQSVSSNLAWYQQKPGQAPRLLIYGASTRAPGIPARFSGSGSGTEFTLTISSLQSEDFAVYYCQQYNNWPLTFGGGTKVEIK
notes: also called 4-1BB fully human antibody 57B3D10
For the molecule B1, the average fluorescence intensity was 63.5 MFI in [1]; 538 MFI in experiment [2]; 490 MFI in [4]; 3.3 MFI in experiment [6]; 148 MFI in experiment [9]; 567 MFI in experiment [10]. Besides, the “EC50 (read off the curve)” value in experiment [3] is ~0.02 µg/mL; in [5], ~0.05 µg/mL. Further, the values for the OD450 nm in the experiment with monkey 4-1BB-his protein [7] and in the experiment with monkey 4-1BB-his protein [8] were 0.25 OD450 nm and 2.03 OD450 nm, respectively.

B2: 11H10C9 (antibody, V domains shown)
VH: QVQLVESGGGVVQPGRSLRLSCAASGFTFSSYAMHWVRQAPGKGLEWVAIIWYDGSNQYYADSVKGRFTISRDNSMNTLYLQMNSLRAEDTAVYYCARVEQWLVSYFDFWGQGTLVTVSS
VL: EIVMTQSPATLSVSPGERATLSCRASQSVSSNLAWYQQKPGQVPRLLIYGASTRATGIPARFSGSGSGTEFTLTISSLQSEDFAVYYCQQYNNWPTFGGGTKVEIK
B2: the OD450 nm in experiment [11] worked out at 3.27 OD450 nm; in experiment [12], 3.55 OD450 nm; in experiment [13], 1.55 OD450 nm; in [14] it was 0.49 OD450 nm. Moreover, the average fluorescence intensity in experiment [1] is 24.7 MFI; in experiment [2], 498 MFI; in experiment [4], 431 MFI; in experiment [6], 3 MFI; in experiment [9], 58.7 MFI; in [10], 576 MFI. For the same molecule, the “EC50 (read off the curve)” value was ~0.02 µg/mL in [3] and ~0.1 µg/mL in experiment [5].

B3: 15G10D4 (antibody, V domains shown)
VH: QVQLVESGGGVVQPGRSLRLSCAASGFSFSSYAMHWVRQAPGKGLEWVAIIWYDGSNQYYADSVKGRFTISRDNSKNTLYLQMNSLRAEDTAVYYCARVKQWLVSYFDYWGQGTLVTVSS
VL: EIVMTQSPATLSVSPGERATLSCRASQSVSSNLAWYQQKPGQVPRLLIYGASTRATGIPARFSGSGSGTEFSLIISSLQSEDFAVYYCQQYNNWPTFGGGTKVEIK
For B3, the OD450 nm stood at 3.35 OD450 nm in experiment [11], 3.53 OD450 nm in experiment [12], 1.72 OD450 nm in [13] and 0.52 OD450 nm in experiment [14]. The average fluorescence intensity was 37.3 MFI in experiment [1]; 532 MFI in experiment [2]; 492 MFI in [4]; 3.3 MFI in experiment [6]; 98.2 MFI in experiment [9]; 646 MFI in [10]. In addition, the “EC50 (read off the curve)” value in [3] was ~0.02 µg/mL; in experiment [5], ~0.05 µg/mL.

B4: 119B6G5 (antibody, V domains shown)
VH: EVQLLESGGGLVQPGGSLRLSCAASGFTFSNYAMSWVRQGPGKGLEWVSTIIGSGDSTYYTDSVKGRFTISRDNSKNTLFLQMNSLRAEDTAVYYCARDKSGWYYFDYWGQGTLVTVSS
VL: DIQMTQSPSTLSASVGDRVTITCRASQSISNWLAWYQQKPGKAPKLLIYKASSLESGVPSRFSGSGSGTEFTLTISSLQPDDFATYYCQQYNDYFPITFGQGTRLEIK
For the molecule B4, the OD450 nm in experiment [11] is 2.62 OD450 nm; in experiment [12], 2.78 OD450 nm; with monkey 4-1BB-his protein [7] it was 0.24 OD450 nm; in the experiment with monkey 4-1BB-his protein [8] it was 2.15 OD450 nm; in experiment [13], 1.25 OD450 nm; in [14], 0.33 OD450 nm. In addition, the average fluorescence intensity in experiment [1] came out at 77.9 MFI; in experiment [2] it was 1080 MFI; in experiment [4] it was 636 MFI; in experiment [6], 3.2 MFI; in experiment [9] it was 49.1 MFI; in [10], 1350 MFI. Also, in [3], the “EC50 (read off the curve)” value is ~0.02 µg/mL.

B5: 113F6C6 (antibody, V domains shown)
VH: QVQLVESGGGVVQPGRSLRLSCAASGLTFSSYGMHWVRQAPGKGLEWVAVIWYDGSNKYYADSVKGRFTISRDNSKNTLYLQMNSLRAEDTAVYYCAREEVLWFGELSYNYYYGMDVWGQGTTVTVSS
VL: DIQMTQSPSSLSASVGDRVTITCRASQGISNYLAWYQQKPGKVPKLLIYAASTLQSGVPSRFSGSGSGTDFTLTISSLQPEDVATYYCQKYNSVPLTFGGGTKVEIK
notes: also called 4-1BB fully human antibody 113F6C6; 113F6F6
Take B5: the average fluorescence intensity came to 51.5 MFI in [1]; 405 MFI in experiment [2]; 323 MFI in [4]; 2.9 MFI in experiment [6]; 46.2 MFI in experiment [9]; 438 MFI in [10]. The “EC50 (read off the curve)” value was ~0.02 µg/mL in [3] and ~0.1 µg/mL in [5]. Besides, the OD450 nm stood at 0.14 OD450 nm in the experiment with monkey 4-1BB-his protein [7] and 1.58 OD450 nm with monkey 4-1BB-his protein [8].

B6: 172E3E3 (antibody, V domains shown)
VH: QVQLQESGPGLVKPSGTLSLTCAVSGGSISSSNWWSWVRQPPGKGLEWIGEIYHSGSTNYNPSLKSRVTISVDKSKNQLSLNLSSVTAADTAVYYCARQGGVAGTLYWYFDLWGRGTLVTVSS
VL: DIVMTQSPLSLPVTPGEPASISCRSSQGLLHSNGYNYLDWYLQKPGQSPQLLIYLGSNRASGVPDRFIGSGSGTDFTLKIRRVEAEDVGVYYCMQVLQTPWTFGQGTKVEIK
As to B6, the OD450 nm worked out at 3.18 OD450 nm in experiment [11], 3.43 OD450 nm in experiment [12], 1.65 OD450 nm in experiment [13] and 0.51 OD450 nm in experiment [14]. The average fluorescence intensity in [1] was 16.7 MFI; in [2] it was 489 MFI; in [4], 413 MFI; in [6] it was 17.6 MFI; in experiment [9] it was 46.9 MFI; in [10], 305 MFI. The concentration for a half-maximal effect (EC50 (read off the curve)) is ~0.02 µg/mL in [3] and ~0.1 µg/mL in [5].

What is called EC50 (read off the curve) is the concentration that produces a half-maximal response.

The values are drawn from patent US20200347144A1 (SHANGHAI HYAMAB BIOTECH, published 2020).
